The source of these data is patent US7186551B1, “3′-phosphoadenosine -5′-phosphosulfate synthetase 2 (PAPSS2) sequence variants” (Mayo Foundation for Medical Education and Research, priority 2001, dated 2007).

This experiment deals with T1, PAPSS2 (Homo sapiens, UniProt O95340).
T1 construct: the wild-type full-length open reading frame (ORF) of the human PAPSS2 cDNA; made in house; host or cells: COS-1 or HepG2 cells, transient transfection; cytosol not purified
T1 sequence (O95340 1-614 R426C): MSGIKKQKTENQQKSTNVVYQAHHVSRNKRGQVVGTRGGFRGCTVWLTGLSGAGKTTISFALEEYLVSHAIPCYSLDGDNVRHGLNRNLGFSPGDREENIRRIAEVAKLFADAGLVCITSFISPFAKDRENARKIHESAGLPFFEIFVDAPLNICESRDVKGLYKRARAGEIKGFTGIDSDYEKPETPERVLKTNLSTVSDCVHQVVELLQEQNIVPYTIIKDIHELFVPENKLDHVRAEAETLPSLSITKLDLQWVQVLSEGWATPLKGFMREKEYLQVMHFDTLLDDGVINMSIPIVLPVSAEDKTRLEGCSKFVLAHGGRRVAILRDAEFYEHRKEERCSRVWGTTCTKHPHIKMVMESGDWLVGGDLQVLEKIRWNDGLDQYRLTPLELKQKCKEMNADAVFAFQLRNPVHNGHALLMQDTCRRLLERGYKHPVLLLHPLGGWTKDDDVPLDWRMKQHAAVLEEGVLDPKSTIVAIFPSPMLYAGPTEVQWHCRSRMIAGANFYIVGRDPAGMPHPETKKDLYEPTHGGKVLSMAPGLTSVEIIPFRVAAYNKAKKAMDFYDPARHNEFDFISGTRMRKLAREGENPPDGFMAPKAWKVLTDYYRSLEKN
The experiment can be described thus: PAPSS activity of cells transfected with wild type PAPSS2 construct versus empty vector / endogenous activity. In kind it is biochemical. The note with it: loxP-modified p91023(b) vector, COS-1 cells. The method, then: Initial expression studies were performed with the commercially available pcDNA4/HisMax-E (pcDNA4) acceptor vector (Invitrogen). Specifically, the pUni donor vector, with and without the PAPSS2 cDNA insert, was combined with the pcDNA4 acceptor vector by Cre recombinase through the loxP sites present in both donor and acceptor vectors. The resultant fusion constructs (pUni/pcDNA4) then were used to transfect either COS-1 or HepG2 cells. However, the construct with the wild type PAPSS2 cDNA insert expressed only about 2-fold higher PAPSS activity in both COS-1 and HepG2 cells than did the control “empty” pUni-pcDNA4. This low signal/noise ratio was due in part to the high levels of endogenous PAPSS activity in mammalian cells. Obviously, this situation would have made it difficult to study the functional significance of PAPSS2 non-synonymous cSNPs.
The loxP site required for Cre recombinase-mediated recombination thus was adapted for cloning into the p91023(b) cloning site so a recombination approach could be used to clone PAPSS2 cDNAs into this vector. A 133 base pair pcDNA4 DNA segment (nucleotides 1080–1212) containing the N-terminal His-tag and the loxP site was amplified by PCR, and this amplicon was ligated into the EcoRI site of p91023(b). As a result, the loxP-modified p91023(b) acceptor vector was also able to add an N-terminal His-tag to the expressed protein. […]

B1: wild type: reference human PAPSS2 polypeptide (SEQ ID NO:9, GenBank AF091242), recombinantly expressed in COS-1 cells (protein, listed as Homo sapiens)
chain: MSGIKKQKTENQQKSTNVVYQAHHVSRNKRGQVVGTRGGFRGCTVWLTGLSGAGKTTISFALEEYLVSHAIPCYSLDGDNVRHGLNRNLGFSPGDREENIRRIAEVAKLFADAGLVCITSFISPFAKDRENARKIHESAGLPFFEIFVDAPLNICESRDVKGLYKRARAGEIKGFTGIDSDYEKPETPERVLKTNLSTVSDCVHQVVELLQEQNIVPYTIIKDIHELFVPENKLDHVRAEAETLPSLSITKLDLQWVQVLSEGWATPLKGFMREKEYLQVMHFDTLLDDGVINMSIPIVLPVSAEDKTRLEGCSKFVLAHGGRRVAILRDAEFYEHRKEERCSRVWGTTCTKHPHIKMVMESGDWLVGGDLQVLEKIRWNDGLDQYRLTPLELKQKCKEMNADAVFAFQLRNPVHNGHALLMQDTCRRLLERGYKHPVLLLHPLGGWTKDDDVPLDWRMKQHAAVLEEGVLDPKSTIVAIFPSPMLYAGPTEVQWHCRSRMIAGANFYIVGRDPAGMPHPETKKDLYEPTHGGKVLSMAPGLTSVEIIPFRVAAYNKAKKAMDFYDPARHNEFDFISGTRMRKLAREGENPPDGFMAPKAWKVLTDYYRSLEKN
On to B1, for which the “increase in PAPSS activity over basal endogenous activity” value was “greater than 7 fold”.
